Test results taken from patent US20210324061A1 (ARGENX BVBA, published 2021).

Target: T1, human GARP-TGF-β1 complex (recombinant complex of human GARP and latent human TGF-β1) (human, UniProt Q14392 20-627; P01137 30-278; P01137 279-390)
T1 construct: also called huGARP-TGF-β1; hGARP-TGF-β1
Assay: SPR, Fab off-rate on human GARP-TGF-β1 complex

T1 sequence (Q14392 20-627 limits assumed, chain 1 of 3): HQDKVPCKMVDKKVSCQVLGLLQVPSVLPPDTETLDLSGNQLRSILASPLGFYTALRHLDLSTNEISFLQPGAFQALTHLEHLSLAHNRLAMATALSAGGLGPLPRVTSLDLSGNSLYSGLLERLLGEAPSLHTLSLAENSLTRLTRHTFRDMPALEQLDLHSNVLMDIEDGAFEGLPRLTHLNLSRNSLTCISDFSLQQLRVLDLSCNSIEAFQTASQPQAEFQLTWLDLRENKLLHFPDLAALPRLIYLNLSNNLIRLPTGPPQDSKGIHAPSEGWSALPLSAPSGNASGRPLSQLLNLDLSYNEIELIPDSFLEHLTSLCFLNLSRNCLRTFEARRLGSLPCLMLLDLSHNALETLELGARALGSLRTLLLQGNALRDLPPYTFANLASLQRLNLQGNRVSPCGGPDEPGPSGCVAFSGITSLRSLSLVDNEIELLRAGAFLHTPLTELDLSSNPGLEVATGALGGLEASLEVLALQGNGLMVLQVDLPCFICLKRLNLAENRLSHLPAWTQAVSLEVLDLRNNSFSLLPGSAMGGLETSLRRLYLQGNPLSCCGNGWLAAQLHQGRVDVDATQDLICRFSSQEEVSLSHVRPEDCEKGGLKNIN
T1 sequence (P01137 30-278 limits assumed, chain 2 of 3): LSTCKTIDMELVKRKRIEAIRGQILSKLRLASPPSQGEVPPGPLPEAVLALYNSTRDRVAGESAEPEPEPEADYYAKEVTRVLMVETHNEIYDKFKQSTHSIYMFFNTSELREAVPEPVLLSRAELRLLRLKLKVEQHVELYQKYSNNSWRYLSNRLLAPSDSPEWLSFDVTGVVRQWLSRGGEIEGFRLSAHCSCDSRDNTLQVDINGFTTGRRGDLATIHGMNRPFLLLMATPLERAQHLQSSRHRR
T1 sequence (P01137 279-390 limits assumed, chain 3 of 3): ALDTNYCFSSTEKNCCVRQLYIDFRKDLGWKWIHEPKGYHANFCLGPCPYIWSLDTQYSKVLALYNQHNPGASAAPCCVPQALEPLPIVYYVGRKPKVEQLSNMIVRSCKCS

B1: Fab 17H5 (Fab of LHG-10.6) (Fab, V domains shown)
VH: EVQLVQPGAELRNSGASVKVSCKASGYRFTSYYIDWVRQAPGQGLEWMGRIDPEDGGTKYAQKFQGRVTFTADTSTSTAYVELSSLRSEDTAVYYCARNEWETVVVGDLMYEYEYWGQGTQVTVSS
VL: DIQMTQSPSSLSASLGDRVTITCQASQSISSYLAWYQQKPGQAPNILIYGASRLKTGVPSRFSGSGSGTSFTLTISGLEAEDAGTYYCQQYASVPVTFGQGTKVELK
notes: Parental, non-germlined Fab
koff: 0.000201 s⁻¹
